This is an account of results in paper PMC11500471 (Protein Science : A Publication of the Protein Society, 2024).

For data set [1], the target named is GRPEL2, human, recombinant, without mitochondrial targeting sequence, His tag kept (human) (UniProt Q8TAA5). Kind of data set: SEC-MALS. (In gel filtration, larger molecules generally elute earlier.)
In data set [2] the target is mitochondrial HSP70 (mtHSP70), human, recombinant, His-tagged (human) (UniProt P38646). In words: SEC-MALS.
In data set [3] the target is GRPEL1, human, recombinant, without mitochondrial targeting sequence, His tag kept (human) (UniProt Q9HAV7). In words: SEC-MALS.
Data set [4] deals with mitochondrial HSP70 (mtHSP70), human, recombinant, His-tagged (human) (UniProt P38646). Kind of data set: MST.
Data set [5] has the same target. Kind of data set: MST. The source holds these as a separate data set.
The target is the same in data set [6]. In words: MST. The source holds these as a separate data set.
Data set [7] deals with the molecule itself. In words: SEC-MALS.

Where “and” joins values, the source holds several entries; their conditions need not be identical. Equal values may be shown once. Read-outs that look alike come from different tables or passages of the source.

For the molecule “GRPEL2, human, recombinant, without mitochondrial targeting sequence, His tag kept (from UniProt Q8TAA5 33-225) (natural protein)”, the stoichiometry N in data set [1] is 2 and 4.
Turning to “GRPEL1, human, recombinant, without mitochondrial targeting sequence, His tag kept (from UniProt Q9HAV7 28-217) (natural protein)”, in data set [2], the stoichiometry N (GRPEL1 per mtHSP70 (2:1 complex)) was determined as 2 and the stoichiometry N (GRPEL1 per mtHSP70 (2:2 complex)) amounted to 1. Further, the stoichiometry N in data set [3] is 2 and 4.

B1: GRPEL2, human, recombinant, without mitochondrial targeting sequence, His tag cleaved at the TEV site (natural protein)
chain: STATQRTAGEDCRSEDPPDELGPPLAERALRVKAVKLEKEVQDLTVRYQRAIADCENIRRRTQRCVEDAKIFGIQSFCKDLVEVADILEKTTECISEESEPEDQKLTLEKVFRGLLLLEAKLKSVFAKHGLEKLTPIGDKYDPHEHELICHVPAGVGVQPGTVALVRQDGYKLHGRTIRLARVEVAVESQRRL
For the molecule B1, the Kd in data set [4] came out at 152 nM; in data set [5], 942 nM; in data set [6], 373 nM.

B2: GRPEL2-C97A, human, recombinant, without mitochondrial targeting sequence, His tag kept (natural protein, UniProt Q8TAA5 33-225, looked up)
chain: STATQRTAGEDCRSEDPPDELGPPLAERALRVKAVKLEKEVQDLTVRYQRAIADCENIRRRTQRAVEDAKIFGIQSFCKDLVEVADILEKTTECISEESEPEDQKLTLEKVFRGLLLLEAKLKSVFAKHGLEKLTPIGDKYDPHEHELICHVPAGVGVQPGTVALVRQDGYKLHGRTIRLARVEVAVESQRRL
With B2, the Kd in data set [6] is 457 nM. For the same molecule, in data set [7], the “stoichiometry N” value is 2 and 4.

B3: GRPEL2-C87A, human, recombinant, without mitochondrial targeting sequence, His tag kept (natural protein, UniProt Q8TAA5 33-225, looked up)
chain: STATQRTAGEDCRSEDPPDELGPPLAERALRVKAVKLEKEVQDLTVRYQRAIADAENIRRRTQRCVEDAKIFGIQSFCKDLVEVADILEKTTECISEESEPEDQKLTLEKVFRGLLLLEAKLKSVFAKHGLEKLTPIGDKYDPHEHELICHVPAGVGVQPGTVALVRQDGYKLHGRTIRLARVEVAVESQRRL
In the case of B3, the Kd in data set [5] turned out to be 204 nM; in data set [6] it was 203 nM. Moreover, the “stoichiometry N” value in data set [7] was 2 and 4.

The stoichiometry N is the number of molecules, sites or subunits per partner or assembly. By Kd is commonly meant the constant that tells how readily two partners part at equilibrium.
